Source: US20210147570A1

Experiments:
[1] = target: human CD73 (cell-surface) (human) (UniProt P21589); experiment: CD73 binding in cell lines (human), EC50 range; method not stated
[2] = target: human CD73 (cell-surface) (human) (UniProt P21589); experiment: CD73 binding in cell lines (human), median EC50; method not stated
[3] = target: human CD73 (cell-surface) (human) (UniProt P21589); experiment: cell-based or functional assay

Chain of human CD73 (cell-surface) (human) (P21589 27-549): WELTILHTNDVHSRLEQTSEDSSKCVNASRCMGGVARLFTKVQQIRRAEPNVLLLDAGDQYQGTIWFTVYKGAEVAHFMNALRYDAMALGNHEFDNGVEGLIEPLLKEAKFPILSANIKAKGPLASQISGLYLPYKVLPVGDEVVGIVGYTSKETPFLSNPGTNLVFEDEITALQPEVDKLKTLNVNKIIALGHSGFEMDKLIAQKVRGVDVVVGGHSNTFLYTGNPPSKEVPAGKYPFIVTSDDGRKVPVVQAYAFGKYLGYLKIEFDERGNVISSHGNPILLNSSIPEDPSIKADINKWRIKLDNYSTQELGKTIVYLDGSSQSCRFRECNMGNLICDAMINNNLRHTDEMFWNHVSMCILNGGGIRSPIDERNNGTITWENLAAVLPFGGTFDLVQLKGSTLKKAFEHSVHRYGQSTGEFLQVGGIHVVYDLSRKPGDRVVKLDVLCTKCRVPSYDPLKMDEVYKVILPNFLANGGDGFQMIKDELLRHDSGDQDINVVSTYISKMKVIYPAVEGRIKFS

B1: CD73.4-IgG2C219S.IgG1.1f (antibody, V domains shown)
VH: QVQLVESGGGVVQPGRSLRLSCAASGFTFSNYGMHWVRQAPGKGLEWVAVILYDGSNKYYPDSVKGRFTISRDNSKNTLYLQMNSLRAEDTAVYYCARGGSSWYPDSFDIWGQGTMVTVSS
VL: DIQMTQSPSSLSASVGDRVTITCRASQGISSWLAWYQQKPEKAPKSLIYAASSLQSGVPSRFSGSGSGTDFTLTISSLQPEDFATYYCQQYNSYPLTFGGGTKVEIKR
EC50 [1]: 0.3 to 0.67 nM | EC50 [2]: 0.5 nM | Cellular Enzyme Inhibition (blockade of AMP processing), median EC50 [3]: 0.39 nM | Internalization, max level [3]: 97.5% | Internalization, median EC50 [3]: 1.2 nM
